Measured values as given in the RNAGym collection of RNA variant scans (doi:10.7554/elife.80360).

B1: Hairpin Ribozyme (parent)
chain: GUCCUCUUUCACGUGCGCGUGAAAGAGAGAAGUGAACCAGAGAAACACACGUUGUGGUAUAUUACCUGGUA

Variants of: B1
Test: self-cleavage, relative activity (ratio to wild type); higher = more cleavage; co-transcriptional

In order of falling self-cleavage:
1. U9C A28G  1.33
2. U9G U60C  1.04
3. U9A A71C  1.01
4. U8G A71G  0.993
5. U9C U60C  0.981
6. U9C G15C  0.977
7. U8G U53C  0.954
8. U9C U52A  0.895
9. C10A A36G  0.856
10. U9A C18A  0.855
11. C10A A35C  0.846
12. U9G G34C  0.833
13. U8G U9G  0.82
14. U8G A41C  0.801
15. U9G G34A  0.8
16. U9C A22U  0.799
17. U9G C18U  0.793
18. C10A G15A  0.773
19. U9C G15A  0.76
20. C10A G15C  0.755
21. U9C U14G  0.754
22. U9G G21C  0.736
23. U9A G15C  0.727
24. U8G C10A  0.725
25. U8G U70A  0.715
26. U9G U52A  0.705
27. U9G A22C  0.677
28. U9G G21U  0.674
29. U8G A35U  0.673
30. U8G A11U  0.67
31. C10A A23U  0.666
32. U8G U58A  0.665
33. C10A U14A  0.661
34. U9G U53G  0.656
35. U8G G15U  0.656
36. U8G C10U  0.654
37. U8C U70C  0.651
38. U9G U60A  0.645
39. U9G A35C  0.637
40. U8G U58G  0.635
41. C10A A22U  0.632
42. U8C U70A  0.631
43. U8G U52C  0.617
44. U9A C18G  0.617
45. C10A A22G  0.607
46. C10A A23G  0.6
47. C10A A24C  0.598
48. U8G U9C  0.595
49. U9C A11C  0.592
50. C10A G19U  0.59
51. U8G A71U  0.588
52. U9C A28U  0.571
53. U8G U53A  0.567
54. C10A G51C  0.566
55. U9G A22U  0.564
56. U9A A23G  0.559
57. U9C U58A  0.559
58. U9A G19U  0.558
59. U9G A49G  0.558
60. U8G A22C  0.556
61. U9G U52C  0.546
62. U9G G13C  0.528
63. U8G A11C  0.512
64. U9A C12G  0.512
65. U8G U60G  0.51
66. U9C U20G  0.503
67. U9G U52G  0.492
68. C10A C12A  0.476
69. U8G G54A  0.456
70. U9A A28U  0.441
71. C10A A36U  0.43
72. C10A C38U  0.425
73. U9G A26C  0.418
74. U9C A39U  0.411
75. U9C G27A  0.4
76. U9G C50U  0.393
77. U9A G54A  0.392
78. U9G A26G  0.386
79. U9A C12A  0.377
80. U9C A39C  0.366
81. U9C G69A  0.357
82. U9A G27U  0.326
83. U8G G69C  0.323
84. U8G G54C  0.313
85. C10A C66U  0.312
86. U8G G27U  0.289
87. U9A G25U  0.285
88. C10A C66A  0.283
89. U9C A39G  0.283
90. U8G G69A  0.282
91. U9C G42C  0.264
92. U9A G40A  0.262
93. U9G G25C  0.255
94. U9A U62C  0.249
95. U9C G27U  0.246
96. U8G U63A  0.245
97. U9G C50A  0.24
98. U9A G27C  0.239
99. U9C U62A  0.238
100. U9G G57C  0.232
101. U9G C37G  0.229
102. U9A C50U  0.22
103. U8G C37A  0.218
104. U9C C50A  0.215
105. U9G A61U  0.211
106. U9G C50G  0.208
107. U9G A45G  0.205
108. U9G C46A  0.204
109. U8C U62C  0.201
110. C10A C46U  0.2
111. U8G G25U  0.2
112. U9G G25U  0.194
113. U8C U62A  0.192
114. U8G G57U  0.19
115. U9G G68U  0.189
116. U8C G68A  0.186
117. U8C U20C  0.184
118. U9C A44C  0.183
119. C10A A61G  0.183
120. U9G U55A  0.179
121. U9A G32C  0.178
122. C10A G68A  0.177
123. U9G C38G  0.175
124. U9G C66G  0.172
125. U9C G56A  0.171
126. U9C U63G  0.169
127. U9A G68C  0.165
128. U8C G69C  0.164
129. U9G C46G  0.161
130. U9A G68U  0.159
131. C10A C66G  0.158
132. U9A G56A  0.158
133. C10A A30U  0.156
134. C10A G32U  0.156
135. U8C G68U  0.154
136. U9C A47C  0.149
137. C10A G56U  0.148
138. U8C U62G  0.144
139. U8G A59C  0.136
140. U9C G69C  0.136
141. U9A G32U  0.135
142. U9A C48U  0.134
143. U8C U63C  0.132
144. C10A A30G  0.131
145. U9A A64U  0.131
146. U9A C48G  0.127
147. C10A A30C  0.122
148. U9C A30U  0.12
149. U9A G40U  0.119
150. U9C G29A  0.118
151. U9G C37A  0.117
152. C10A C46A  0.109
153. U9A A43U  0.105
154. C10A C46G  0.1
155. U9G A31U  0.1
156. U9C A59G  0.0975
157. C10A G32C  0.0945
158. U8G A47G  0.0909
159. U8G G32A  0.0907
160. C10A A31C  0.09
161. U9C C48A  0.0859
162. U9G U67A  0.0846
163. U9G A45U  0.0827
164. U9G C46U  0.0772
165. U9G U62A  0.0559
166. U9C C46U  0.0512
167. U9C A45G  0.0278
